System: MS2 coat protein
Experiment: apparent KD of MS2 coat protein; designed switch direction (-1 OFF switch, 1 ON switch): -1; higher = weaker reporter binding
Method in brief: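 Each step of the titration lasted 0.8–1.5 h at the lowest concentration and 10–20 min at the highest. The protein, SNAP-549-labelled MS2 coat protein, went from 0.7 or 1.5 nM doubling to 3 µM over RNA switches transcribed on Illumina chips by stalled E. coli RNA polymerase. Normalised cluster fluorescence was curve-fitted, and the per-design median over clusters is given as apparent KD.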

[1] = input ligand: microRNA oligo, concentration not stated
[2] = Eterna round: R95, input ligand: FMN 200 uM
[3] = Eterna round: R95, input ligand: microRNA oligo, concentration not stated
[4] = Eterna round: R95, input ligand: none

Sequence	apparent KD of MS2 coat protein (input ligand: FMN 200 uM) [nM]	apparent KD of MS2 coat protein [1] [nM]	apparent KD of MS2 coat protein (input ligand: none) [nM]	apparent KD of MS2 coat protein [2] [nM]	apparent KD of MS2 coat protein [3] [nM]	apparent KD of MS2 coat protein [4] [nM]
CACCUGAAGAGAGGAUAUGAUACAUGAGGAUCACCCAUGUAAUAAAUGAGAAUUUCGAAUGUAAUUCAGAAGGCUCAAUAAGGC [Ostricism 94 - Jieux - Exclusion NG 2] (Eterna round: R96, puzzle: Exclusion NG 2)	107	50.8	52	–	–	–
CACGGACGAUAAGGAUAUGUUAUAGCUCAAACAGCAGAAGGUGUUAAACCACCGUCACAUGAGGAUCACCCAUGUGUGACAGUU [Eternabot solution 34] (Eterna round: R96, puzzle: Exclusion NG 1)	46.5	30.7	40.3	–	–	–
CACUUACAUGAGGAUCACCCAUGUGAGGAUAUCGUGACCAGACGAGAAGUCUAUGUCACGAGAAGGCACUUGGG [Exclusion 1 (Mod 2 solution 97 by Eternabot)] (Eterna round: R97, puzzle: Exclusion 1)	114	–	314	–	–	–
CAGAACAGAGGAUAUACAUGAGGAUCACCCAUGUGUUCCAGCUAGGAGACUAGCAUAUGUAGAAGGCUGUUCUG [Mat - Exclusion 3 - JL Mod - D12] (Eterna round: R97, puzzle: Exclusion 3)	87.7	–	161	–	–	–
CAGAAUUGAGGAUAUGAUCAAUUUAACAUGAGGAUCACCCAUGUAUGGGAAUGAUUCUGAUCAGAAGGCGAUUCUU [Exclusion 5: 1:a] (Eterna round: R96, puzzle: Exclusion 5)	960	511	633	–	–	–
CAGAAUUGAGGAUAUGAUCAAUUUAACAUGAGGAUCACCCAUGUAUGGGAAUGAUUCUGAUCAGAAGGCGAUUCUU [Exclusion 5: 1:a] (puzzle: Exclusion 5)	–	–	–	257	285	461
CAGCCCUGAGGAUAUACAUGAGGAUCACCCAUGUGAAGAACGGGAAACGAAACCCUCAGUAGAAGGCGGGUCAU [Eternabot (Original) Solution 14] (Eterna round: R97, puzzle: Exclusion 3)	131	–	58.9	–	–	–
CAGCUGAAAGUGAGGAUAUCUAGAGCGAUAGCUCUAGAGAAGGCACAUGAGGAUCACCCAUGUGAUCACAGCUG [BmEx4/7-A4] (Eterna round: R97, puzzle: Brourd's mod of Exclusion 4)	1320	–	249	–	–	–
CAGCUGAAAGUGAGGAUAUCUAGAGCUGCGGCUCUAGAGAAGGCACAUGAGGAUCACCCAUGUCUCAACAGCUG [BmEx4/1-A3] (Eterna round: R97, puzzle: Brourd's mod of Exclusion 4)	51.9	–	18.1	–	–	–
CAGCUGAAUGUGAGGAUAUGUCGAGCCUCGGCUCGAUAGAAGGCACAUGAGGAUCACCCAUGUCUCAACAGCUG [BmEx4/2-C2] (Eterna round: R97, puzzle: Brourd's mod of Exclusion 4)	258	–	34	–	–	–
CAGGAUAGAGGAUAUACAUAGAUACAGAUUCAUGUGAUCCUACAUGAGGAUCACCCAUGUAGAAGGCUAUCCUG [Fiskers Ex 2 - 21] (Eterna round: R96, puzzle: Exclusion 2)	216	321	348	–	–	–
CAGGAUAGAGGAUAUACAUAGAUACAGAUUCAUGUGAUCCUACAUGAGGAUCACCCAUGUAGAAGGCUAUCCUG [Fiskers Ex 2 - 21] (puzzle: Exclusion 2)	–	–	–	–	240	–
CAGGCGUCUGUGCGUGGUGACAUGAGGAUCACCCAUGUUUUGCUCGUUUUGUCUUGGGCUCGGCGCCCGGGUUCGGG [-24.5, -48.6, A 9%] (Eterna round: R97, puzzle: Sensor, turn-off variant 1)	181	–	208	–	–	–
CAGGGCAUAGGAUAUGCGGGUAAACACCAUGCAUUAGAAUGACAUGAGGAUCACCCAUGUAGAAGGAUGAUAGC [Eternabot (L1) Solution 98] (Eterna round: R97, puzzle: Exclusion 2)	28.3	–	29.2	–	–	–
CAGGUCCGAGGAUAUAUUAUGUGAAACAUGAGGAUCACCCAUGUUAUAUGAUGGAUGUAAAUAGAAGGCGGACUUG [Mat - Exclusion 5 - JL mod - D64] (puzzle: Exclusion 5)	–	–	–	23.9	29.3	35.3
CAGUACUGAGGAUAUACAUGAGGAUCACCCAUGUGCUCAAAGUAGGAUACUACUAUUAGUAGAAGGCAGUACUG [Fiskers Ex 3 828 mod 21] (puzzle: Exclusion 3)	–	–	–	–	23.5	–
CAGUACUGAGGAUAUACAUGAGGAUCACCCAUGUGCUUUAGCUAGGAUACUAGCAUCAGUAGAAGGCAGUACUG [Fiskers Ex 3 828 mod 11] (puzzle: Exclusion 3)	–	–	–	–	12.9	–
CAGUACUGAGGAUAUACAUGAGGAUCACCCAUGUGUCCUAUAUUAGGAAACUAGGUAUGUAGAAGGCAGUACUG [Omei Ex3 Mod of Eli 4.27 v5] (Eterna round: R97, puzzle: Exclusion 3)	485	–	340	–	–	–
CAGUACUGAGGAUAUACAUGAGGAUCACCCAUGUGUCUAAUAUUAGGAAACUAGGUAUGUAGAAGGCAGUACUG [Omei Ex3 Mod of Eli 4.27 v6] (Eterna round: R97, puzzle: Exclusion 3)	318	–	36.1	–	–	–
CAGUACUGAGGAUAUACAUGAGGAUCACCCAUGUGUUCCAGCUAGGAAACUAGCAAAAGUAGAAGGUAGUACUG [salish99_ex3_r3_086 (!)] (puzzle: Exclusion 3)	–	–	–	–	14.7	–
CAGUACUGAGGAUAUACAUGAGGAUCACCCAUGUGUUCCAGCUAGGAAGCUAGCAAAAGUAGAAGGCAGUACUG [salish99_ex3_r3_073] (puzzle: Exclusion 3)	–	–	–	–	26.6	–
CAGUACUGAGGAUAUACAUGAGGAUCACCCAUGUGUUCGAGCUAGGAAACUAGCAAAAGUAGAAGGCAGUACUG [salish99_ex3_r3_080] (puzzle: Exclusion 3)	–	–	–	85.2	15.4	14.9
CAGUUUUGAGUGAGGAUAUGUGAUCCAAAGGGUCAACAGAAGGCACAUGAGGAUCACCCAUGUAAUCCAAUUGG [Eternabot (L2) Solution 37] (Eterna round: R97, puzzle: Brourd's mod of Exclusion 4)	1520	–	3760	–	–	–
CAUACUAAAGUCAGGAUAUGCAGUCGAAUACGGGUGUAGAAGGGACAUGAGGAUCACCCAUGUAGAUAGUAAAG [EX-4 Malc #20] (puzzle: Brourd's mod of Exclusion 4)	–	–	–	37.9	48.9	42.2
CAUACUGAAGUUAGGAUAUGCGGCCGAAUACGGAUGUAGAAGGGACAUGAGGAUCACCCAUGUAGAUAGUAAAG [EX-4 Malc #15] (puzzle: Brourd's mod of Exclusion 4)	–	–	–	20.8	20.1	20.5
CAUAUUCGAGGAUAUGCCUGAUGUCCUUAUGGAGCCCAUUCACAUGAGGAUCACCCAUGUAGAAGGCGGAUGCG [Eternabot (L1) Solution 37] (Eterna round: R97, puzzle: Exclusion 2)	31.2	–	24.8	–	–	–
